Changes are numbered by the printed parent chain. In names and notes the source's numbering stands.
B1: wild-type TEAS: tobacco 5-epi-aristolochene synthase (TEAS) protein, SEQ ID NO:2, Nicotiana tabacum (protein)
chain: MASAAVANYEEEIVRPVADFSPSLWGDQFLSFSIKNQVAEKYAQEIEALKEQTRNMLLATGMKLADTLNLIDTIERLGISYHFEKEIDDILDQIYNQNSNCNDLCTSALQFRLLRQHGFNISPEIFSKFQDENGKFKESLASDVLGLLNLYEASHVRTHADDILEDALAFSTIHLESAAPHLKSPLREQVTHALEQCLHKGVPRVETRFFISSIYDKEQSKNNVLLRFAKLDFNLLQMLHKQELAQVSRWWKDLDFVTTLPYARDRVVECYFWALGVYFEPQYSQARVMLVKTISMISIVDDTFDAYGTVKELEAYTDAIQRWDINEIDRLPDYMKISYKAILDLYKDYEKELSSAGRSHIVCHAIERMKEVVRNYNVESTWFIEGYTPPVSEYLSNALATTTYYYLATTSYLGMKSATEQDFEWLSKNPKILEASVIICRVIDDTATYEVEKSRGQIATGIECCMRDYGISTKEAMAKFQNMAETAWKDINEGLLRPTPVSTEFLTPILNLARIVEVTYIHNLDGYTHPEKVLKPHIINLLVDSIKI
B2: TEAS Y527F: TEAS protein in which Tyr527 is changed to Phe, SEQ ID NO:8 (protein)
chain: B1 chain with K35D, N55S, M62R, T73I, D89E, T388M, Y527F
B3: TEAS W273E: TEAS protein in which Trp273 is changed to Glu, SEQ ID NO:4 (protein)
chain: B1 chain with K35D, N55S, M62R, T73I, D89E, W273E, T388M

Key:
Assay type in all cases: biochemical
[1] = Diterpene synthase activity assay with radiolabelled GGPP (solvent extraction, scintillation counting, Ag-TLC)
Procedure: (§1) Synthase activity assays were carried out based on the assay described in Vogeli and Chappell, Plant Physiol. 94:1860 (1990) and Vogeli, et al., Plant Physiol. 93:182 (1990). In general, radio-labeled (^3H or ^14C) substrate was incubated with enzyme at room temperature in a buffered magnesium salt solution (200 mM Tris, pH 8, 50 mM Mg chloride, 1 mM DTT, unless otherwise noted); hydrocarbon products were then selectively extracted into an organic solvent such as hexane. The hexane extract generally was treated with silica gel to remove prenyl alcohols and other oxygenated compounds generated by non-enzymatic hydrolysis of substrate, which partition inefficiently into hexane. Hydrocarbon products present in the hexane phase were quantitated by scintillation counting.
A subsequent extraction with a more polar organic solvent such as ethyl acetate was sometimes carried out. Oxygenated compounds more efficiently partition into ethyl acetate-type solvents. Compounds present in the ethyl acetate phase were also quantitated by scintillation counting.
(§2) Substrate concentrations typically ranged from 0.1 nanomolar to 100 micromolar. In some assays, the substrate was not radiolabeled. Reactions generally were carried out in triplicate for each substrate concentration. Protein concentration was determined by the Bradford method. For determination of steady-state kinetic parameters, enzyme concentrations were chosen such that generation of products over time was linear throughout the course of the reaction.
(§3) Diterpene synthase assays typically were carried out using ^3H geranylgeranyl diphosphate (GGPP) and enzyme in 250 mM Tris, 10 mM Mg chloride, 1 mM DTT, pH 8.0. Sesquiterpene synthase assays typically were carried out using ^14C or ^3H FPP and enzyme in 100 mM Tris, 30 mM Mg chloride, 1 mM DTT, pH 8.0. Monoterpene synthase assays typically were carried out using ^3H GPP and enzyme. As a control for nonspecific binding of GPP by protein, identical reactions were set up which contained BSA, rather than enzyme.
(§4) Terpenoid hydrocarbon products are not readily separated by thin layer chromatography on normal or reverse-phase plates; however, some can be separated by argentation TLC (Ag-TLC), in which silica plates are first treated with silver nitrate. Ag-TLC described here generally followed the procedure described by Back et al., Arch. Biochem. Biophys. 315:527 (1994). A silica TLC plate was dipped in 15% silver nitrate (aqueous), then dried for 3-5 hours at 110° C. After spotting of tritiated enzymatic products (solvent extract), the plate was developed in benzene:hexane, ethyl acetate (50:50:1, by volume), sprayed with En^3Hance (NEN) fluorography spray, placed on film, and exposed for several days to several weeks. Long exposure times were generally necessary, as silver-nitrate treatment of the TLC plate appeared to cause quenching of the fluorography reagents fluorescence. Alternatively, ^14C labelled products were detected after one to two days without the use of fluorography spray.
The TEAS W273S enzyme and radiolabelled GGPP were incubated as described above and hydrocarbon products were extracted with hexane. Oxygenated products were then extracted with ethyl acetate.
The mutant TEAS C440W1W273S protein contains a tryptophan residue at position 440 and a serine residue at position 273. Assays with GGPP were carried out using 0.5 micromolar ^3H GGPP, various concentrations of unlabelled GGPP (Echelon), and enzyme. Reactions were incubated for 60 minutes at room temperature. […] Hexane-extractable products of GGPP turnover by the double mutant were analyzed by Ag-TLC. The products included two species (Rf=0.11 and 0.28) that were distinct from the hydrolysis product geranyl geraniol (Rf=0.0).To verify that products generated by TEAS C440W/W273S from GGPP were not the hydrolysis product, geranylgeraniol, a sample was analyzed by Ag-TLC. […]

[2] = Alkylation of enzyme by radiolabeled FPP; settings: dependent upon the presence of MgCl2
Procedure: Reactions to determine the products made by TEAS W273E using FPP as substrate were carried out essentially as described above, using radioiabeled FPP. […] The alkylation was dependent upon the presence of MgCl2 in the reaction mixture. In control experiments, boiled W273E-TEAS, as well as wild-type TEAS and BSA, were not alkylated.

[3] = Sesquiterpene synthase activity assay with radiolabelled FPP (Ag-TLC and GC/MS product analysis); settings: radiolabelled FPP; FIG. 4
Procedure: as §1, §2, §3, §4
Products of FPP turnover by the purified TEAS W273S mutant were analyzed by argentation thin-layer chromatography (Ag-TLC).
Reactions with FPP as substrate were carded out with ^14C FPP (9 μm) and enzyme (160 μm) in reaction buffer (20 μl). After incubating for 30 minutes at room temperature, products made by TEAS C440W/W273S were analyzed by Ag-TLC. […] The new product was distinct from both 5-epi-aristolochene and vetispiradiene. Several other products were also formed, many of which migrated slowly upon argentation TLC.
Reactions with radiolabeled FPP and TEAS Y520F enzyme were carried out essentially as described above. Reaction products were analysed by Ag-TLC and by GC/MS.

[4] = Monoterpene synthase activity assay with GPP; settings: crude extract of enzyme from E. coli
Procedure: as §1, §3
A crude extract of TEAS Y527F enzyme was made by inducing expression in E. coli cells, and sonicating the cells. […]

| Molecule | conversion of GGPP to hexane-extractable products ([1]; 0.5 micromolar 3H GGPP plus unlabelled GGPP, 60 minutes at room temperature) | counts in hexane and ethyl acetate extracts after incubation with radiolabelled GGPP ([1]; hydrocarbon products extracted with hexane, oxygenated products with ethyl acetate, compared with buffer alone) | alkylation of the enzyme by FPP [2] | products of FPP turnover, analyzed by Ag-TLC [3] | products formed with GPP as a substrate (monoterpene synthase activity) [4] |
| --- | --- | --- | --- | --- | --- |
| B1 | did not | counts lower than buffer alone | not alkylated |  |  |
| B2 |  |  |  | products other than 5-epi-aristolochene were generated | No products were observed |
| B3 |  |  | alkylation of TEAS by FPP had occurred | at least one product other than 5-epi-aristolochene was formed |  |

— patent publication US6645762B2, “Synthases” (The Salk Institute for Biological Studies, priority 1998, dated 2003)
